Test results: paper PMC7337043

Molecular target: mature Zika virus (ZIKV) virion, icosahedral shell of 180 copies each of the E protein and M protein (Zika virus)
Test: cryo-EM structure; purified ZIKV virions (10 mM Tris-HCl pH 8.0, 120 mM NaCl, 1 mM EDTA) mixed with purified Fab (15 mM Tris-HCl pH 8, 150 mM NaCl) at E protein:Fab molar ratio 1:2; single particle analysis with icosahedral symmetry, 4.1 Å

B1: Fab of monoclonal antibody ZAb_FLEP (Fab, V domains shown)
VH: EVQLLESGGGLVQPGGSLRLSCAASGFSFSTYSMHWVRQAPGKGLEWVSAISGEGDSAYYADSVKGRFTISRDNSKNTLYLQMNKVRAEDTAVYYCVGGYSNFYYYYTMDAWGQGTMVTVSS
VL: DIVMTQSPASLSLSPGERATLSCRATQSISTFLAWYQQKPGQAPRLLIYDASTRASGIPARFSGSRSGTDFTLTITRLEPEDFAVYYCQQRYNWPPYSFGQGTKLEIK
  stoichiometry N (Fab molecules per virion): 120
